Test results reported in patent US20240018502A1.
Positions count from the first letter of the chain named. In names and notes the source's numbering stands. Blank lines part the entries; values can stand above or below the binder they belong to.

Target: plasma purified human complement protein C3 (human) (UniProt P01024)
Test: cell-based or functional assay

Chain of plasma purified human complement protein C3 (human) (P01024 23-667, chain 1 of 2): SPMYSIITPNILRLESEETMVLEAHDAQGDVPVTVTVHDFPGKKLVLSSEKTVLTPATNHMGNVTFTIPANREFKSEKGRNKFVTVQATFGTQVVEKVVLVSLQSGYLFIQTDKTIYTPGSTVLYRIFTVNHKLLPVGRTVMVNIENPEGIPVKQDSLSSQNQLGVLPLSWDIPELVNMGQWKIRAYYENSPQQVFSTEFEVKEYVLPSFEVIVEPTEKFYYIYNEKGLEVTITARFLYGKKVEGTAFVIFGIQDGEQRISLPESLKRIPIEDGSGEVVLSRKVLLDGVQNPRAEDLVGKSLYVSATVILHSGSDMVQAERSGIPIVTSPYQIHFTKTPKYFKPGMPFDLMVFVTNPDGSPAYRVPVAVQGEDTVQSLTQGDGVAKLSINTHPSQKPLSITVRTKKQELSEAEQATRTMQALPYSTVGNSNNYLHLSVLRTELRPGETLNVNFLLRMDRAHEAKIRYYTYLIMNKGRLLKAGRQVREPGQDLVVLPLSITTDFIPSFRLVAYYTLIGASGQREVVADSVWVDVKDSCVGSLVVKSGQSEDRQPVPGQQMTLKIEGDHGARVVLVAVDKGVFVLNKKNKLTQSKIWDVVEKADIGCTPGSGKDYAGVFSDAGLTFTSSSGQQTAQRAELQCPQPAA
Chain of plasma purified human complement protein C3 (human) (P01024 672-1663, chain 2 of 2): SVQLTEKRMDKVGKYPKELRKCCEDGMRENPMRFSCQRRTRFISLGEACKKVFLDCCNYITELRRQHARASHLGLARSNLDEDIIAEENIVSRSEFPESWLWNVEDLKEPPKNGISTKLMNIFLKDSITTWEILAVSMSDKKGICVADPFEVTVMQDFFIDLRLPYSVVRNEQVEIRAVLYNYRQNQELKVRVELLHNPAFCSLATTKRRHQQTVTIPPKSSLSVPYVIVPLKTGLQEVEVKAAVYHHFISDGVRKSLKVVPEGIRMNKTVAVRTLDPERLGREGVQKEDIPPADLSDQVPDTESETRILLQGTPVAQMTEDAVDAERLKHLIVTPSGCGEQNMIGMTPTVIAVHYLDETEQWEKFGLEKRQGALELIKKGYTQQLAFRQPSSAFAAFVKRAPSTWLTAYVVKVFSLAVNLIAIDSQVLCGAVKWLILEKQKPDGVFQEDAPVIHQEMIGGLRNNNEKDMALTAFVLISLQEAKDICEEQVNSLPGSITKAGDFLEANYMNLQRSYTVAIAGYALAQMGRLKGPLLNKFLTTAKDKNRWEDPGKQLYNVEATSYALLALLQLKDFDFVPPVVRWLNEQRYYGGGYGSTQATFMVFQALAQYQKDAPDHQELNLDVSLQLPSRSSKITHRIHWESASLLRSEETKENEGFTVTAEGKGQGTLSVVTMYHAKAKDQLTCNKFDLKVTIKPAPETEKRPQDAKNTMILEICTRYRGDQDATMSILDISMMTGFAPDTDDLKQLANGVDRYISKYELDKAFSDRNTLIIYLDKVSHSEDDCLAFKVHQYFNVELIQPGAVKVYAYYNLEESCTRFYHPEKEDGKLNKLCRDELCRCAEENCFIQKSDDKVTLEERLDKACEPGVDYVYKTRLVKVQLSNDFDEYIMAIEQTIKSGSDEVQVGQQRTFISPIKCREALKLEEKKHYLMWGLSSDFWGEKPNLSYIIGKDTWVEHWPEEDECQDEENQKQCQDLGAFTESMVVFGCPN

EC50 hC3 cleavage: 139 nM
B1: MTSP-1 protease domain I41S/F99M/C122S/G151N/Q175P/Q192S (enzyme)
chain: VVGGTDADEGEWPWQVSLHALGQGHSCGASLISPNWLVSAAHCYIDDRGFRYSDPTQWTAFLGLHDQSQRSAPGVQERRLKRIISHPFFNDFTMDYDIALLELEKPAEYSSMVRPISLPDASHVFPAGKAIWVTGWGHTQYGGTNALILQKGEIRVINQTTCENLLPQPITPRMMCVGFLSGGVDSCSGDSGGPLSSVEADGRIFQAGVVSWGDGCAQRNKPGVYTRLPLFRDWIKENTGV

EC50 hC3 cleavage: 288 nM
B2: MTSP-1 protease domain Y59F/C122S/G151N/Q192T (enzyme)
chain: B1 chain with S26I, Y44F, M94F, P169Q, S188T

EC50 hC3 cleavage: 96.8 nM
B3: MTSP-1 protease domain I41S/C122S/G151N/Q175D/Q192R (enzyme)
chain: B1 chain with M94F, P169D, S188R

EC50 hC3 cleavage: 7.34 nM
B4: MTSP-1 protease domain Q38H/I41S/D60bT/F60eS/Y60gW/D96K/F97G/F99L/C122S/G151H/Q175L/Q192D (enzyme)
chain: B1 chain with Q23H, D47T, F50S, Y52W, D91K, F92G, M94L, N145H, P169L, S188D

EC50 hC3 cleavage: 34.2 nM
B5: MTSP-1 protease domain I41D/C122S/G151N/Q192T/D217E (enzyme)
chain: B1 chain with S26D, M94F, P169Q, S188T, D214E

EC50 hC3 cleavage: 25.3 nM
B6: MTSP-1 protease domain I41D/F99L/M117T/C122S/G151N/Q192T/A204D/D217E (enzyme)
chain: B1 chain with S26D, M94L, M112T, P169Q, S188T, A200D, D214E

EC50 hC3 cleavage: 22 nM
B7: MTSP-1 protease domain I41D/F99L/C122S/G151N/Q192T/D217E (enzyme)
chain: B1 chain with S26D, M94L, P169Q, S188T, D214E

EC50 hC3 cleavage: 74.5 nM
B8: MTSP-1 protease domain I41G/F99L/C122S/G151N/Q175R/Q192A (enzyme)
chain: B1 chain with S26G, M94L, P169R, S188A

EC50 hC3 cleavage: 33.9 nM
B9: MTSP-1 protease domain I41E/F99L/C122S/Q175G/Q192T (enzyme)
chain: B1 chain with S26E, M94L, N145G, P169G, S188T

EC50 hC3 cleavage: 13.9 nM
B10: MTSP-1 protease domain I41S/F99L/C122S/G151N/Q175P (enzyme)
chain: B1 chain with M94L, S188Q

EC50 hC3 cleavage: 45 nM
B11: MTSP-1 protease domain I41D/G43A/D96E/F99L/C122S/G151N/Q192T (enzyme)
chain: B1 chain with S26D, G28A, D91E, M94L, P169Q, S188T

EC50 hC3 cleavage: 37.6 nM
B12: MTSP-1 protease domain I41D/G43A/F99L/C122S/G151N/Q192T/P232S/K239R (enzyme)
chain: B1 chain with S26D, G28A, M94L, P169Q, S188T, P229S, K236R

EC50 hC3 cleavage: 20 nM
B13: MTSP-1 protease domain I41E/F99L/C122S/G151N/Q175G (enzyme)
chain: B1 chain with S26E, M94L, P169G, S188Q

EC50 hC3 cleavage: 298 nM
B14: MTSP-1 protease domain D96E/C122S/G151N/Q192T (enzyme)
chain: B1 chain with S26I, D91E, M94F, P169Q, S188T

EC50 hC3 cleavage: 64.3 nM
B15: MTSP-1 protease domain I41S/F99L/C122S/Q175P/Q192V (enzyme)
chain: B1 chain with M94L, N145G, S188V

EC50 hC3 cleavage: 47.9 nM
B16: MTSP-1 protease domain I41D/F60eI/D96E/F99L/C122S/G151N/Q192T (enzyme)
chain: B1 chain with S26D, F50I, D91E, M94L, P169Q, S188T

EC50 hC3 cleavage: 414 nM
B17: MTSP-1 protease domain I41D/Y59F/F99L/C122S/G151N/Q192T/V213A (enzyme)
chain: B1 chain with S26D, Y44F, M94L, P169Q, S188T, V210A

EC50 hC3 cleavage: 32.2 nM
B18: MTSP-1 protease domain I41D/F99L/C122S/I136M/G151N/Q192T/D217L/K224R (enzyme)
chain: B1 chain with S26D, M94L, I131M, P169Q, S188T, D214L, K221R

EC50 hC3 cleavage: 155 nM
B19: MTSP-1 protease domain I41E/F99L/C122S/G151N/Q175R/Q192T (enzyme)
chain: B1 chain with S26E, M94L, P169R, S188T

EC50 hC3 cleavage: 19.1 nM
B20: MTSP-1 protease domain I41S/F97L/F99L/C122S/Q192S (enzyme)
chain: B1 chain with F92L, M94L, N145G, P169Q

EC50 hC3 cleavage: 78.8 nM
B21: MTSP-1 protease domain I41D/D96E/C122S/G151N/Q192T (enzyme)
chain: B1 chain with S26D, D91E, M94F, P169Q, S188T

EC50 hC3 cleavage: 47.4 nM
B22: MTSP-1 protease domain I41E/F97L/F99L/C122S/Q192A (enzyme)
chain: B1 chain with S26E, F92L, M94L, N145G, P169Q, S188A

EC50 hC3 cleavage: 31 nM
B23: MTSP-1 protease domain I41S/F97D/F99L/C122S/Q192V (enzyme)
chain: B1 chain with F92D, M94L, N145G, P169Q, S188V

EC50 hC3 cleavage: 51.5 nM
B24: MTSP-1 protease domain I41D/D96E/F99L/C122S/G151N/Q192T (enzyme)
chain: B1 chain with S26D, D91E, M94L, P169Q, S188T

EC50 hC3 cleavage: 225 nM
B25: MTSP-1 protease domain F99L/C122S/G151N/Q192T (enzyme)
chain: B1 chain with S26I, M94L, P169Q, S188T

EC50 hC3 cleavage: 27.6 nM
B26: MTSP-1 protease domain I41D/D96E/F99L/C122S/G151N/Q192T/D217E (enzyme)
chain: B1 chain with S26D, D91E, M94L, P169Q, S188T, D214E

EC50 hC3 cleavage: 29.4 nM
B27: MTSP-1 protease domain I41S/F97V/T98N/F99L/C122S/Q192S (enzyme)
chain: B1 chain with F92V, T93N, M94L, N145G, P169Q

EC50 hC3 cleavage: 16.9 nM
B28: MTSP-1 protease domain I41D/F99L/C122S/G151N (enzyme)
chain: B1 chain with S26D, M94L, P169Q, S188Q

EC50 hC3 cleavage: 13.2 nM
B29: MTSP-1 protease domain I41T/F97R/ins97aV/T98L/C122S/Q192S (enzyme)
chain: VVGGTDADEGEWPWQVSLHALGQGHTCGASLISPNWLVSAAHCYIDDRGFRYSDPTQWTAFLGLHDQSQRSAPGVQERRLKRIISHPFFNDRVLFDYDIALLELEKPAEYSSMVRPISLPDASHVFPAGKAIWVTGWGHTQYGGTGALILQKGEIRVINQTTCENLLPQQITPRMMCVGFLSGGVDSCSGDSGGPLSSVEADGRIFQAGVVSWGDGCAQRNKPGVYTRLPLFRDWIKENTGV

EC50 of hC3 cleavage: 17.1 nM
B30: MTSP-1 I41S/D60bT/F60eS/Y60gW/D96K/F97G/ins97aV/T98P/F99L/C122S/G151H/Q175L/Q192D (enzyme)
chain: VVGGTDADEGEWPWQVSLHALGQGHSCGASLISPNWLVSAAHCYIDTRGSRWSDPTQWTAFLGLHDQSQRSAPGVQERRLKRIISHPFFNKGVPLDYDIALLELEKPAEYSSMVRPISLPDASHVFPAGKAIWVTGWGHTQYGGTHALILQKGEIRVINQTTCENLLPQLITPRMMCVGFLSGGVDSCDGDSGGPLSSVEADGRIFQAGVVSWGDGCAQRNKPGVYTRLPLFRDWIKENTGV

EC50 hC3 cleavage: 5.3 nM
B31: MTSP-1 protease domain I41S/F97A/ins97aV/T98L/C122S/Q192A (enzyme)
chain: B29 chain with T26S, R92A, S189A

EC50 hC3 cleavage: 336 nM
B32: MTSP-1 protease domain I41S/ins97aV/C122S/Q192D (enzyme)
chain: B29 chain with T26S, R92F, L94T, S189D

EC50 hC3 cleavage: 6.75 nM
B33: MTSP-1 protease domain I41S/F97G/ins97aA/T98L/C122S/Q192A (enzyme)
chain: B29 chain with T26S, R92G, V93A, S189A

EC50 of hC3 cleavage: 215 nM
B34: MTSP-1 Q38H/D60bT/F60eS/Y60gW/D96K/F97G/ins97aV/T98P/F99L/C122S/G151H/Q175L/Q192D (enzyme)
chain: B30 chain with Q23H, S26I

EC50 of hC3 cleavage: 13.1 nM
B35: MTSP-1 Q38H/I41S/F60eS/Y60gW/D96K/F97G/ins97aV/T98P/F99L/C122S/G151H/Q175L/Q192D (enzyme)
chain: B30 chain with Q23H, T47D
